{"source": "paper PMC8990738", "molecular_target": "depolymerase Dpo71 (Acinetobacter baumannii phage vB_AbaM-IME-AB2)", "assay": "SEC; Superose 6 Increase column on AKTA FPLC, equilibrated with PBS; gel filtration markers of 150 and 200 kDa; purified Dpo71 alone"}
{"substance": "depolymerase Dpo71 (enzyme)", "values": [{"measurement": "stoichiometry N", "value": 3}]}
